According to patent US11155602B2, “Polypeptides targeting HIV fusion” (priority 2015, dated 2021):
Where a chain is given by its changes, count along the chain named.

B1: 230 (protein)
chain: MGVSDVPRDLEVVAATPTSLLISWEYKVHPYRYYRITYGETGGNSPVQEFTVPSVLSTATISGLKPGVDYTITVYAVTYGVDSDPISINYRTDDKPSQHHHHHH
modifications: Adnectin
B2: 121 (protein)
chain: MGHHHHHHGGVSDVPRDLEVVAATPTSLLISWEYNVNPYRYYRITYGETGGNSPVQEFTVPSVLSTAEISGLKPGVDYTITVYAVTYGVDSDPISINYRTPGG
modifications: Adnectin
B3: 122 (protein)
chain: B2 chain with E33Q, N35K, N37H, Y87R, D92A
modifications: Adnectin
B4: 125 (protein)
chain: B2 chain with N35K, N37H, E68T, D90Q
modifications: Adnectin
B5: 123 (protein)
chain: MGVSDVPRDLEVVAATPTSLLISWEYKVHPYRYYRITYGETGGNSPVQEFTVPSVLSTATISGLKPGVDYTITVYAVTRGVDSAPISINYRTEIDKPSQHHHHHH
modifications: Adnectin
B6: 124 (protein)
chain: B5 chain with T60E, E93P
modifications: Adnectin
B7: 187 (protein)
chain: MGHHHHHHGGSVSDVPRDLEVVAATPTSLLISWEYKVHPYRYYRITYGETGGNSPVQEFKVPSVLSTATISGLKPGVDYTITVYAVTYGDDSAPISINYRTEID
modifications: Adnectin
B8: 201 (protein)
chain: B7 chain with K60T, D91Q
modifications: Adnectin
B9: 202 (protein)
chain: B7 chain with K60T, A93K
modifications: Adnectin
B10: 197 (protein)
chain: B7 chain with K60T, A93G
modifications: Adnectin
B11: 219 (protein)
chain: B7 chain with E34K, K60T
modifications: Adnectin
B12: 229 (protein)
chain: B7 chain with H38D, P39H, Y40R, K60T
modifications: Adnectin
B13: 216 (protein)
chain: B7 chain with K60T, G72D, A93H
modifications: Adnectin
B14: 217 (protein)
chain: B7 chain with K60T, Y88R
modifications: Adnectin
B15: 205 (protein)
chain: B7 chain with K36D, K60T
modifications: Adnectin
B16: 220 (protein)
chain: B7 chain with G9C, H38A, P39H, Y40N, K60T
modifications: Adnectin
B17: 203 (protein)
chain: B7 chain with K60T, A93G
modifications: Adnectin
B18: 225 (protein)
chain: B7 chain with H38T, P39S, K60T
modifications: Adnectin
B19: 189 (protein)
chain: B7 chain with K60T, D90K
modifications: Adnectin
B20: 224 (protein)
chain: B7 chain with H38A, P39Y, Y40D, K60T
modifications: Adnectin
B21: 210 (protein)
chain: B7 chain with K60T, A93S
modifications: Adnectin
B22: 206 (protein)
chain: B7 chain with K60T, A93K
modifications: Adnectin
B23: 207 (protein)
chain: B7 chain with G48W, K60T
modifications: Adnectin
B24: 223 (protein)
chain: B7 chain with H38D, P39Y, Y40R, K60T
modifications: Adnectin
B25: 188 (protein)
chain: B7 chain with K60T, D91L
modifications: Adnectin
B26: 200 (protein)
chain: B7 chain with G48T, K60T
modifications: Adnectin
B27: 208 (protein)
chain: B7 chain with K60T, A93T
modifications: Adnectin
B28: 209 (protein)
chain: B7 chain with K60T, A93T
modifications: Adnectin
B29: 198 (protein)
chain: B7 chain with K60T, N98Q
modifications: Adnectin
B30: 190 (protein)
chain: B7 chain with K60T, D90A
modifications: Adnectin
B31: 222 (protein)
chain: B7 chain with H38D, P39H, Y40Q, K60T
modifications: Adnectin
B32: 213 (protein)
chain: B7 chain with K60T, A93W
modifications: Adnectin
B33: 199 (protein)
chain: B7 chain with K60T, A93Q
modifications: Adnectin
B34: 193 (protein)
chain: B7 chain with K60T, D90K
modifications: Adnectin
B35: 192 (protein)
chain: B7 chain with K60T, D90T
modifications: Adnectin
B36: 196 (protein)
chain: B7 chain with K60T, D91V
modifications: Adnectin
B37: 214 (protein)
chain: B7 chain with K60T, Y88H
modifications: Adnectin
B38: 211 (protein)
chain: B7 chain with K60T, Y88R
modifications: Adnectin
B39: 228 (protein)
chain: B7 chain with H38N, P39H, Y40Q, K60T
modifications: Adnectin
B40: 195 (protein)
chain: B7 chain with K60T, A93Q
modifications: Adnectin
B41: 194 (protein)
chain: B7 chain with K60T, D91P
modifications: Adnectin
B42: 212 (protein)
chain: B7 chain with K60T, Y88H
modifications: Adnectin
B43: 221 (protein)
chain: B7 chain with H38Y, P39G, K60T
modifications: Adnectin
B44: 191 (protein)
chain: B7 chain with K60T, D90T
modifications: Adnectin
B45: 215 (protein)
chain: B7 chain with E34K, K36D, K60T
modifications: Adnectin
B46: 218 (protein)
chain: B7 chain with K60T, S71R
modifications: Adnectin
B47: 226 (protein)
chain: MGHHHHHHGGSVSDVPRDLEVVAATPTSLLISWEYKVHPYRYYRIIHETGGNSPVQEFTVPSVLSTATISGLKPGVDYTITVYAVTYGDDSAPISINYRTEID
modifications: Adnectin
B48: 227 (protein)
chain: MGHHHHHHGGSVSDVPRDLEVVAATPTSLLISWEYKVHPYRYYRITYGETGGNSPVQEFTVPSVLSTATISGLKPGVDYTITVYAVTYGDDSAPISINYRKEAEL
modifications: Adnectin

System: NL-Rluc virus
Test: Combinectin potency assay: antiviral EC50, NL-Rluc virus in MT-2 cells, luciferase readout
Assay type: cell-based, HIV-1
Conditions: Anti-N17 Adnectin, Table 3
Outline: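 Peptides, serially diluted threefold over 11 points in triplicate, were exposed for 4–5 days to MT-2 cells preinfected 1 h with NL-Rluc virus (MOI 0.01). Replication read out as Renilla luciferase signal, with EC50 derived against untreated infected controls.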

Molecule	EC50 [nM]
B1	17
B2	57
B3	6
B4	4340
B5	28
B6	6
B7	86
B8	20
B9	> 1000
B10	81
B11	> 1000
B12	> 1000
B13	> 1000
B14	> 1000
B15	86
B16	86
B17	86
B18	> 1000
B19	> 1000
B20	> 1000
B21	143
B22	237
B23	> 1000
B24	> 1000

Molecule	EC50 [nM]
B25	86
B26	> 1000
B27	> 1000
B28	20
B29	2830
B30	> 1000
B31	> 1000
B32	> 1000
B33	> 1000
B34	252
B35	2830
B36	86
B37	> 1000
B38	631
B39	> 1000
B40	> 1000
B41	> 1000
B42	86
B43	> 1000
B44	> 1000
B45	> 1000
B46	62
B47	631
B48	> 1000
